Source: patent US10398755B2, “Clusterin pharmaceuticals and treatment methods using the same” (UNIVERSITY OF SOUTHERN CALIFORNIA, priority 2009, dated 2019)

Experiments:
[1] = biological target: T1, catalytic domain of human MMP-9 (residue 112-445) (Homo sapiens, UniProt P14780); test: MMP inhibition assay (FRET peptide substrate), recombinant MMP-9 catalytic domain; assay type: biochemical; conditions: CLU 50 μg/ml (0.63 μM), RT 0.3 h
T1 construct: The recombinant catalytic domain of human MMP-9 (residue 112-445) was purchased from ProtEra; purchased ProtEra
Procedure: (§1) Recombinant MMP-9 catalytic domain (A) or APMA-activated MMP-7 (B) was incubated with PBS, CLU (50 μg/ml or 0.63 μM), SB3-CT (2 μM), or BSA (50 μg/ml), and MMP FRET substrate at RT for 0.3 h. RFU in PBS samples was considered 100%. Each reaction was performed in triplicate. Standard errors were depicted as a bar in each graph. MMPs were mixed with CLD in TSCB buffer, 50 mM Tris-HCI, pH, 7.5, 150 mM NaCl, 5 mM CaCl2, 0.002% Brij35 (or otherwise indicated concentration) 30 min prior to substrate addition, and incubated for 3 h at RT in the presence or absence of 0.02 mM p-aminophenylmercuric acetate (APMA). MMP activity was measured using a 5-FAM/QXL520 fluorescence resonance energy transfer (FRET) peptide as a substrate (EXlEm=490 nm/520 nm) (AnaSpec, Fremont, Calif.), according to the manufacturer's protocol. Relative fluorescence unit (RFU) was obtained by subtracting the values of APMA- or enzyme-omitted reactions from those of test samples, and then considering the fluorescence unit of a PBS (vehicle) sample as 100%. Enzyme reactions were performed in black 96-well plate, containing combinations of 10 ng, 5 ng, 5 ng, 10 ng, 2.5 μg, 2.5 μg of MMP-2, MMP-7, catalytic domain of MMP-9, MMP-9, CCLU, and/or BSA, respectively, in 50 μl reaction volume. As MMP substrates (0.4 μM), 520 MMP FRET substrate […] […] Fluorescence was monitored using a Victor^3TM V multilabel counter (PerkinElmer). […]

MMP-7 = biological target: T2, MMP-7 (Mus musculus, UniProt Q10738); test: MMP inhibition assay (FRET peptide substrate), APMA-activated MMP-7; assay type: biochemical; conditions: CLU 50 μg/ml (0.63 μM), RT 0.3 h
T2 construct: purchased R&D Systems
T2 sequence (Q10738 95-264): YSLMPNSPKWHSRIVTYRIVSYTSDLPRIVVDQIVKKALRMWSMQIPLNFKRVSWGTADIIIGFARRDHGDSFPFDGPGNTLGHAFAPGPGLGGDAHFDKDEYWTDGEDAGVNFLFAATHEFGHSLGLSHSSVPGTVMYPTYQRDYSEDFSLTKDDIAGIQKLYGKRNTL
Procedure: as §1

T1 sequence (P14780 112-445): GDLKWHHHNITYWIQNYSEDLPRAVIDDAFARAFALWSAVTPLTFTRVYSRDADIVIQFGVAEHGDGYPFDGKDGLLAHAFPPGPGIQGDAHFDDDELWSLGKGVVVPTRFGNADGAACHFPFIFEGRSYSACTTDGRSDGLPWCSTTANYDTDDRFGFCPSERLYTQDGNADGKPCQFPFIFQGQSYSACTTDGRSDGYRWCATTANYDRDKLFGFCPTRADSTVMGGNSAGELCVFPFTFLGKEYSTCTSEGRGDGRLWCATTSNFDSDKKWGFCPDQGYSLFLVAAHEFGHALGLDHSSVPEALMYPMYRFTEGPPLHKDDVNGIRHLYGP

B1: CLU: secreted disulfide-linked heterodimeric glycoprotein (70-80 KD); assays used recombinant mouse CLU with C-terminal (His)6 (protein, UniProt Q06890 22-448, looked up)
Clusterin: EQEVSDNELQELSTQGSRYINKEIQNAVQGVKHIKTLIEKTNAERKSLLNSLEEAKKKKEDALEDTRDSEMKLKAFPEVCNETMMALWEECKPCLKHTCMKFYARVCRSGSGLVGQQLEEFLNQSSPFYFWMNGDRIDSLLESDRQQSQVLDAMQDSFARASGIIDTLFQDRFFARELHDPHYFSPIGFPHKRPHFLYPKSRLVRSLMSPSHYGPPSFHNMFQPFFEMIHQAQQAMDVQLHSPAFQFPDVDFLREGEDDRTVCKEIRRNSTGCLKMKGQCEKCQEILSVDCSTNNPAQANLRQELNDSLQVAERLTEQYKELLQSFQSKMLNTSSLLEQLNDQFNWVSQLANLTQGEDKYYLRVSTVTTHSSDSEVPSRVTEVVVKLFDSDPITVVLPEEVSKDNPKFMDTVAEKALQEYRRKSRAE
modifications: C-terminal His6 tag
B1 was tested, and the “inhibition of MMP-9 catalytic domain activity” value [1] was 59% and the “inhibition of APMA-activated MMP-7” value (MMP-7) was 17%.
